The text below walks through data of patent EP0569583B1, “[…] OF POLYETHER-S[…] AGENTS IN DIAGNOSIS AND THERAPY” (Deutsches Krebsforschungszentrum Stiftung des öffentlichen …, priority 1991, dated 1993).

A value given as a limit tells only on which side of the number the result lay.

Data set [1] relates to experimentelle Tumoren und Xenotransplantate. Nature of the data set: Concentration of the radiolabelled agents in experimental tumours and human xenografts. The settings on record: 300 µC = 11,1 MBq administered; all tumour models tested (Beispiel 2 compound only in Walker Carcinosarcom, Osteosarcom, Ovarialcarcinom O-342). It counts as in vivo, Ratte; Nacktmaus. The text has this: Die Konzentrierung dieser Mittel wurde an folgenden experimentellen Tumoren und an folgenden Tiermodellen geprüft:
Alle diese experimentellen Tumoren und Xenotransplantate wurden mit den Verbindungen a und c gemäß Beispiel 1 (also 1a und 1c) und drei davon, nämlich das Walker Carcinosarcom, das Osteosarcom und das Ovarialcarcinom (O-342) auch mit dem Diphosphat gemäß Beispiel 2 untersucht.
(§1) Bei allen diesen Anwendungsversuchen wurden immer 300 µC = 11,1 MBq verabreicht Es zeigten sich mit den eingesetzten Mitteln, nämlich 1a und 1c und die Verbindung aus Beispiel 2 eine Konzentration von mindestens 30% des Mittels an der gewünschten Stelle, also am Tumor. Die beigefügte Fig. 4 zeigt das Bild einer BDIX-Ratte mit Ovarialcarcinom 42 h nach Injektion, die mit ^131J-HOPAD-CMPEG, also ^131J-Hydroxyphenyl-1-aminome-than-1,1-diphosphonat-Cyanurchlorid aktiviertes Polyethylenglykol (n=ca. 100 bis 110) in einer Menge von 300 µC behandelt war. Das Bild zeigt, daß ganz unten, im Tumor ca. 30+/-2% des Mittels konzentriert sind, während in der Mitte die Leber ca. 10% zeigt und die Schilddrüse, die oberhalb der Leber sichtbar ist, weit weniger als 2% des Mittels aufgenommen hat Diese %-Angaben beziehen sich auf die Gesamtmenge an die mit radiojodmarkierten Mittel im Gesamtkörper der Ratte.

Data set [2] deals with Ovarialcarcinom. The data set is described as follows: Whole-body distribution of radioiodine activity in tumour-bearing rat (Fig. 4, Fig. 5). It counts as in vivo, BDIX-Ratte. On the procedure:
as §1
Die beigefügte Fig. 5 zeigt die Messung einer mit ^131I-TOP-(CMPEG)4 behandelten BD IX Ratte (auch hier Ovarialcarcinom). Es zeigt sich ein ähnliches Ergebnis wie das von Fig. 4.
Von der gesamten Körperaktivität an radioaktivem Jod finden sich nach 150 h etwa 23% im Tumor, etwa 12% in der Leber, etwa 5% im Blut und etwa 3-4% jeweils in den Muskeln und in der Schilddrüse. Der Rest ist natürlich, wie auch bei der Aufnahme von Fig. 4, über den restlichen Körper verteilt.

[3] abbreviates: BDIX-Ratte with Ovarialcarcinom, 42 h after injection, 300 µC, % of total labelled agent in whole body (Fig. 4).
The mark [4] stands for this setting: BD IX Ratte with Ovarialcarcinom, after 150 h, % of total body activity of radioactive iodine (Fig. 5).

On to “^111-In-Tetra-(hydroxyphenoxy)-phthalocyanin-(CMPEG)4 [1c]”, for which, in data set [1], the “Konzentration des Mittels an der gewünschten Stelle, also am Tumor” value was at least 30%.

For “^131J-Hydroxyphenyl-1-aminome-than-1,1-diphosphonat-Cyanurchlorid aktiviertes Polyethylenglykol (n=ca. 100 bis 110) [Beispiel 2]”, in data set [2] (setting [3]), the Leber entry is reported as “ca. 10%”, the Schilddrüse is on record as below 2% and the “im Tumor konzentriert” value is listed as “ca. 30+/-2%”. For the same substance, the “Konzentration des Mittels an der gewünschten Stelle, also am Tumor” value in data set [1] is recorded as at least 30%.

As for “^131I-Tetra(hydroxyphenyl)-porphin-(CMPEG)4 [1a]”, in data set [2] (setting [4]), the “im Blut” value was around 5%, the “im Tumor” value was around 23%, the “in den Muskeln” value is recorded as 3-4% and the “in der Leber” value is around 12%. For the same substance, the “in der Schilddrüse” value in data set [2] (setting [4]) is 3-4%. Further, the “Konzentration des Mittels an der gewünschten Stelle, also am Tumor” value in data set [1] was at least 30%.
